From patent US20190029960A1, “Therapeutic Nanoparticles Having EGFR Ligands and Methods of Making and Using Same” (Pfizer Inc., priority 2016, published 2019) come the findings set out here.

One test deals with T1, recombinant human EGFR (Homo sapiens, UniProt P00533).
T1 construct: Fc; purchased R&D Systems
Description: P2 competition ELISA (P2-Biotin dimer tracer, 50 nM EGF). The class given is binding. In general terms: ELISA stands for enzyme-linked immunosorbent assay.

Another test addresses T2, rhEGFR-Fc (Homo sapiens, UniProt P00533).
T2 construct: purchased R&D Systems 344-ER-050
Nature of the test: SPR nanoparticle binding, without EGF. Conditions: 1 mg/mL; for nanoparticle binding: FIG. 9C. The protocol:
Surface plasmon resonance (SPR) binding studies were carried out on a Biacore T200 instrument (GE Healthcare). Approximately 10,000 RU of anti-Fc antibody (GE Healthcare, Cat #BR100839) was immobilized via amine coupling on each of flow cells 1 and 2 of a CM5 dextran-coated gold sensor chip (GE Healthcare, Cat #BR100530). Fc tagged recombinant human EGFR (rhEGFR-Fc, R&D systems, Cat #344-ER-050) was reconstituted at 10 μg/mL in PBS and captured on flow cell 2. The contact time and resulting amount of rhEGFR-Fc capture was varied based on the nature of the analyte, namely whether it was a peptide or nanoparticle.
Nanoparticle binding assays were carried out in 10 mM HBS-EP+ buffer (GE Healthcare, Cat #BR100669) at 25° C. Nanoparticles were injected over the rh EGFR-Fc surface for 60 s, followed by dissociation for 60 s and regeneration with a 10 s pulse of 3M MgCl2. A fresh rhEGFR-Fc surface was generated for each concentration of each nanoparticle tested. Nanoparticle sensograms could not be fit accurately to the 1:1 Langmuir kinetic model due to the multivalent nature of the binding interaction between nanoparticle and target. Instead, nanoparticle binding data was presented as a plot of binding response vs. concentration at a single time point after the injection end.

For test [1], the target named is T3, Fc tagged recombinant human EGFR (rhEGFR-Fc) (Homo sapiens, UniProt P00533).
T3 construct: purchased R&D Systems 344-ER-050
The class given is binding. Conditions: for Result: Table 14, relative affinity compared to KD of parent P2 (FIG. 16); for KD (μM): Table 11, P2 Ala scan; for Relative Affinity: Table 11, relative to the KD of parent P2. The protocol:
Surface plasmon resonance (SPR) binding studies were carried out on a Biacore T200 instrument (GE Healthcare). Approximately 10,000 RU of anti-Fc antibody (GE Healthcare, Cat #BR100839) was immobilized via amine coupling on each of flow cells 1 and 2 of a CM5 dextran-coated gold sensor chip (GE Healthcare, Cat #BR100530). […] The contact time and resulting amount of rhEGFR-Fc capture was varied based on the nature of the analyte, namely whether it was a peptide or nanoparticle.
Peptide binding assays were carried out in 10 mM PBS buffer supplemented with 0.05% surfactant P20 and 5% DMSO by volume, at 25° C. Peptides were injected over the rhEGFR-Fc surface for 60 s, followed by dissociation (buffer injection) for 60 s and regeneration with a 10 s pulse of 3M MgCl2. A fresh rhEGFR-Fc surface was generated for each concentration of each peptide tested. Peptide binding data was analyzed by fitting to a 1:1 Langmuir kinetic model to obtain the on-rate (ka), off-rate (kd) and/or equilibrium binding constant (KD) of the interaction.

*1 amine or outer side, *2 acyl side, *3 side chain or, on linkers, in order; H or OH if unused. Where a SMILES comes first, the peptide text is derived from it. Bridges are numbered along the chain shown (N, C = ends). Primed or numbered codes have the meaning given here. Where no end group is shown, it is not given here. Side-chain parts run from the residue outwards. [ ]: non-standard residue; d: D form. The star is where a group is joined. Trp(5-OMe) = COc1ccc2[nH]cc(C[C@H](N)C(=O)O)c2c1; DBCO = C1#Cc2ccccc2N(*)Cc2ccccc21; Igl = N[C@H](C(=O)O)C1Cc2ccccc2C1; PEG5 = NCCOCCOCCOCCOCCOCCC(=O)O; Pen = CC(C)(S)[C@H](N)C(=O)O; Suc = O=C(CCC(=O)[*:2])[*:1]; DBCO′ = dibenzocyclooctyne; Orn = NCCC[C@H](N)C(=O)O; Pra = C#CC[C@H](N)C(=O)O; Dap = NC[C@H](N)C(=O)O

For the compound `COc1ccc2[nH]cc(C[C@@H]3NC(=O)[C@H](C(C)C)NC(=O)[C@H](CCC(=O)O)NC(=O)[C@H](C4Cc5ccccc5C4)NC(=O)[C@H]([C@@H](C)O)NC(=O)[C@@H](NC(=O)[C@H](C)NC(=O)[C@H](CC(=O)O)NC(C)=O)C(C)(C)SSC(C)(C)[C@@H](C(=O)N[C@@H](CC(C)C)C(=O)N[C@@H](CCC(N)=O)C(=O)NCC(=O)NCC(=O)N[C@@H](CCCCNC(=O)CCOCCOCCOCCOCCOCCNC(=O)CCC(=O)N4Cc5ccccc5C#Cc5ccccc54)C(N)=O)NC(=O)[C@H](CCC(=O)O)NC(=O)[C@H](CCCNC(=N)N)NC(=O)CNC3=O)c2c1` [P2-2/55/102, Ac-DAPenT(2Ind)GEV(5MeO)WGREPenLQGGK(DBCO)-CONH2] (Ac-DA[Pen]T[Igl]EV[Trp(5-OMe)]GRE[Pen]LQGGK([PEG5-Suc-DBCO])-NH2; disulfide 3-12), at recombinant human EGFR, the IC50 (commonly the point on the concentration scale where inhibition reaches its midpoint) was 609 nM. Same read-out and setting: under `COc1ccc2[nH]cc(C[C@@H]3NC(=O)[C@H](C(C)C)NC(=O)[C@H](CCC(=O)O)NC(=O)[C@H](C4Cc5ccccc5C4)NC(=O)[C@H]([C@@H](C)O)NC(=O)[C@@H](NC(=O)[C@@H]4CCCN4C(=O)[C@H](CC(=O)O)NC(C)=O)C(C)(C)SSC(C)(C)[C@@H](C(=O)N[C@@H](CC(C)C)C(=O)N[C@@H](CCC(N)=O)C(=O)NCC(=O)NCC(=O)N[C@@H](CCCCNC(=O)CCOCCOCCOCCOCCOCCNC(=O)CCC(=O)N4Cc5ccccc5C#Cc5ccccc54)C(N)=O)NC(=O)[C@H](CCC(=O)O)NC(=O)[C@H](CCCNC(=N)N)NC(=O)CNC3=O)c2c1` [P2-55/102, Ac-DPPenT(2Ind)GEV(5MeO)WGREPenLQGGK(DBCO)-CONH2] (Ac-DP[Pen]T[Igl]EV[Trp(5-OMe)]GRE[Pen]LQGGK([PEG5-Suc-DBCO])-NH2; disulfide 3-12) stands 829 nM. In the case of “Ac-SECFPLAPDWLSCILGGK(DBCO)-CONH2 (Ac-SECFPLAPDWLSCILGGK(DBCO′)-NH2; disulfide 3-13 (inferred)) [Peptide P1]”, the nanoparticle binding signal result with rhEGFR-Fc (5% and 10% ligand density, FIG. 8B) is reported as “comparable to EGF-NP”. The nanoparticle binding result with rhEGFR-Fc (5% ligand density) is “minimal binding”; with rhEGFR-Fc (10% ligand density), “more robust binding”. As to “H2N-GDP-Orn-TWEVWGREDLQ-GG-Par-G-CONH2 (H-GDP[Orn]TWEVWGREDLQGG[Pra]G-NH2; lactam 4-13; SMILES C#CC[C@H](NC(=O)CNC(=O)CNC(=O)[C@H](CCC(N)=O)NC(=O)[C@H](CC(C)C)NC(=O)[C@@H]1CC(=O)NCCC[C@H](NC(=O)[C@@H]2CCCN2C(=O)[C@H](CC(=O)O)NC(=O)CN)C(=O)N[C@@H]([C@@H](C)O)C(=O)N[C@@H](Cc2c[nH]c3ccccc23)C(=O)N[C@@H](CCC(=O)O)C(=O)N[C@@H](C(C)C)C(=O)N[C@@H](Cc2c[nH]c3ccccc23)C(=O)NCC(=O)N[C@@H](CCCNC(=N)N)C(=O)N[C@@H](CCC(=O)O)C(=O)N1)C(=O)NCC(N)=O) [Peptide P2-58]”, the Result result in test [1] was “No binding”. On to “H2N-GDP-Orn-TWEVWGREELQ-GG-Par-G-CONH2 (H-GDP[Orn]TWEVWGREELQGG[Pra]G-NH2; lactam 4-13; SMILES C#CC[C@H](NC(=O)CNC(=O)CNC(=O)[C@H](CCC(N)=O)NC(=O)[C@H](CC(C)C)NC(=O)[C@@H]1CCC(=O)NCCC[C@H](NC(=O)[C@@H]2CCCN2C(=O)[C@H](CC(=O)O)NC(=O)CN)C(=O)N[C@@H]([C@@H](C)O)C(=O)N[C@@H](Cc2c[nH]c3ccccc23)C(=O)N[C@@H](CCC(=O)O)C(=O)N[C@@H](C(C)C)C(=O)N[C@@H](Cc2c[nH]c3ccccc23)C(=O)NCC(=O)N[C@@H](CCCNC(=N)N)C(=O)N[C@@H](CCC(=O)O)C(=O)N1)C(=O)NCC(N)=O) [Peptide P2-61]”, for which the Result result in test [1] is “No binding”. Consider “H2N-GDPDTWEVWGRE-Dap-LQ-GG-Par-G-CONH2 (H-GDPDTWEVWGRE[Dap]LQGG[Pra]G-NH2; lactam 4-13) [Peptide P2-66]”, for which the Result entry in test [1] is reported as “No binding”. Turning to “H2N-GDPDTWEVWGRE-Orn-LQ-GG-Par-G-CONH2 (H-GDPDTWEVWGRE[Orn]LQGG[Pra]G-NH2; lactam 4-13; SMILES C#CC[C@H](NC(=O)CNC(=O)CNC(=O)[C@H](CCC(N)=O)NC(=O)[C@H](CC(C)C)NC(=O)[C@@H]1CCCNC(=O)C[C@H](NC(=O)[C@@H]2CCCN2C(=O)[C@H](CC(=O)O)NC(=O)CN)C(=O)N[C@@H]([C@@H](C)O)C(=O)N[C@@H](Cc2c[nH]c3ccccc23)C(=O)N[C@@H](CCC(=O)O)C(=O)N[C@@H](C(C)C)C(=O)N[C@@H](Cc2c[nH]c3ccccc23)C(=O)NCC(=O)N[C@@H](CCCNC(=N)N)C(=O)N[C@@H](CCC(=O)O)C(=O)N1)C(=O)NCC(N)=O) [Peptide P2-65]”, the Result result in test [1] is recorded as “No binding”. Still for that read-out and setting: under “H2N-GDPDTWEVWGREKLQ-GG-Par-G-CONH2 (H-GDPDTWEVWGREKLQGG[Pra]G-NH2; lactam 4-13; SMILES C#CC[C@H](NC(=O)CNC(=O)CNC(=O)[C@H](CCC(N)=O)NC(=O)[C@H](CC(C)C)NC(=O)[C@@H]1CCCCNC(=O)C[C@H](NC(=O)[C@@H]2CCCN2C(=O)[C@H](CC(=O)O)NC(=O)CN)C(=O)N[C@@H]([C@@H](C)O)C(=O)N[C@@H](Cc2c[nH]c3ccccc23)C(=O)N[C@@H](CCC(=O)O)C(=O)N[C@@H](C(C)C)C(=O)N[C@@H](Cc2c[nH]c3ccccc23)C(=O)NCC(=O)N[C@@H](CCCNC(=N)N)C(=O)N[C@@H](CCC(=O)O)C(=O)N1)C(=O)NCC(N)=O) [Peptide P2-64]” stands “No binding”. Turning to “H2N-GDPETWEVWGRE-Dap-LQ-GG-Par-G-CONH2 (H-GDPETWEVWGRE[Dap]LQGG[Pra]G-NH2; lactam 4-13) [Peptide P2-69]”, in test [1], the Result entry is listed as “No binding”.

In the case of “H2N-GDPETWEVWGRE-Orn-LQ-GG-Par-G-CONH2 (H-GDPETWEVWGRE[Orn]LQGG[Pra]G-NH2; lactam 4-13; SMILES C#CC[C@H](NC(=O)CNC(=O)CNC(=O)[C@H](CCC(N)=O)NC(=O)[C@H](CC(C)C)NC(=O)[C@@H]1CCCNC(=O)CC[C@H](NC(=O)[C@@H]2CCCN2C(=O)[C@H](CC(=O)O)NC(=O)CN)C(=O)N[C@@H]([C@@H](C)O)C(=O)N[C@@H](Cc2c[nH]c3ccccc23)C(=O)N[C@@H](CCC(=O)O)C(=O)N[C@@H](C(C)C)C(=O)N[C@@H](Cc2c[nH]c3ccccc23)C(=O)NCC(=O)N[C@@H](CCCNC(=N)N)C(=O)N[C@@H](CCC(=O)O)C(=O)N1)C(=O)NCC(N)=O) [Peptide P2-68]”, in test [1], the Result result was “No binding”. Consider “H2N-GDPKTWEVWGREELQ-GG-Par-G-CONH2 (H-GDPKTWEVWGREELQGG[Pra]G-NH2; lactam 4-13; SMILES C#CC[C@H](NC(=O)CNC(=O)CNC(=O)[C@H](CCC(N)=O)NC(=O)[C@H](CC(C)C)NC(=O)[C@@H]1CCC(=O)NCCCC[C@H](NC(=O)[C@@H]2CCCN2C(=O)[C@H](CC(=O)O)NC(=O)CN)C(=O)N[C@@H]([C@@H](C)O)C(=O)N[C@@H](Cc2c[nH]c3ccccc23)C(=O)N[C@@H](CCC(=O)O)C(=O)N[C@@H](C(C)C)C(=O)N[C@@H](Cc2c[nH]c3ccccc23)C(=O)NCC(=O)N[C@@H](CCCNC(=N)N)C(=O)N[C@@H](CCC(=O)O)C(=O)N1)C(=O)NCC(N)=O) [Peptide P2-60]”, for which the Result entry in test [1] is reported as “No binding”. In the case of “P2-3: P2 alanine scan analog, alanine at position 3 (Ac-DPATWEVWGRECLQ-NH2) [Peptide P2-3]”, in test [1], the “KD (μM)” value was “nb” and the “Relative Affinity” value was “nb”. For the compound “P2-8: P2 alanine scan analog, alanine at position 8 (DPCTWEVAGRECLQ; disulfide 3-12 (inferred); not fully specified (N-terminus, C-terminus)) [Peptide P2-8]”, in test [1], the “KD (μM)” value is “nb” and the “Relative Affinity” value was “nb”. As for “P2-12: P2 alanine scan analog, alanine at position 12 (Ac-DPCTWEVWGREALQ-NH2) [Peptide P2-12]”, in test [1], the “KD (μM)” value is “nb” and the “Relative Affinity” value was “nb”.
